Blank lines part the entries; values can stand above or below the binder they belong to. Positions of bridges follow the written chain, without caps; N, C: chain ends. Non-standard residues stand in square brackets, D forms with d. Primed or numbered codes have the meaning given here. Chains are numbered I, II in the order given. No end group written: not given here. *: point of attachment. Palmitoyl = CCCCCCCCCCCCCCCC(=O)*; Nle = CCCC[C@H](N)C(=O)O; PEG2″ = not defined here
Columns and labels:
mouse KLK7 (mKLK7) = mouse KLK7 (mKLK7) (mouse, UniProt Q91VE3 26-249); assay: substrate-based activity assay, same conditions as for hKLK
mouse KLK7 (mKLK7), sequence (Q91VE3 26-249 limits assumed): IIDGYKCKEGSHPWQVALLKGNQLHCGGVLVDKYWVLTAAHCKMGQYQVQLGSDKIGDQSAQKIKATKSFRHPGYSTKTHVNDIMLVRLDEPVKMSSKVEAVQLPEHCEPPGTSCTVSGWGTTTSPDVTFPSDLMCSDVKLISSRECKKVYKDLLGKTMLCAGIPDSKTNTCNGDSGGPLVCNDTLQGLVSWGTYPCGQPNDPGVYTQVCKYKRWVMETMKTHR

[1] = biological target: T1, human serum albumin (HSA) (human, UniProt P02768 25-609); assay: fluorescence polarization, dilution series of human serum
[2] = biological target: T2, human Kallikrein-related peptidase 7 (hKLK7) (human, UniProt P49862 30-253); assay: activity assay in the presence of 25 µM HSA
T2 construct: Active protease in substrate-based activity assays; also called stratum corneum chymotryptic enzyme (SCCE)
T2 sequence (P49862 30-253 limits assumed): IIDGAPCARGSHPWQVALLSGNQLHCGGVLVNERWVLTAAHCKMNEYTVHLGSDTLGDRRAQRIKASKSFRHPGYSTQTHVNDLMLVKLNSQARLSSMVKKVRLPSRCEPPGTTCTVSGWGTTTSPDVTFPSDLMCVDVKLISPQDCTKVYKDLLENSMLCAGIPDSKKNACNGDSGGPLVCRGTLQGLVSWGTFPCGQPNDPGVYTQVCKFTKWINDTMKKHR

[3] = biological target: T2, human Kallikrein-related peptidase 7 …; assay: substrate-based activity assay
[4] = biological target: T3, mouse serum albumin (MSA) (mouse, UniProt P07724 25-608); assay: fluorescence polarization, dilution series of mouse albumin in PBS
T3 construct: also called mouse albumin
T3 sequence (P07724 25-608 limits assumed): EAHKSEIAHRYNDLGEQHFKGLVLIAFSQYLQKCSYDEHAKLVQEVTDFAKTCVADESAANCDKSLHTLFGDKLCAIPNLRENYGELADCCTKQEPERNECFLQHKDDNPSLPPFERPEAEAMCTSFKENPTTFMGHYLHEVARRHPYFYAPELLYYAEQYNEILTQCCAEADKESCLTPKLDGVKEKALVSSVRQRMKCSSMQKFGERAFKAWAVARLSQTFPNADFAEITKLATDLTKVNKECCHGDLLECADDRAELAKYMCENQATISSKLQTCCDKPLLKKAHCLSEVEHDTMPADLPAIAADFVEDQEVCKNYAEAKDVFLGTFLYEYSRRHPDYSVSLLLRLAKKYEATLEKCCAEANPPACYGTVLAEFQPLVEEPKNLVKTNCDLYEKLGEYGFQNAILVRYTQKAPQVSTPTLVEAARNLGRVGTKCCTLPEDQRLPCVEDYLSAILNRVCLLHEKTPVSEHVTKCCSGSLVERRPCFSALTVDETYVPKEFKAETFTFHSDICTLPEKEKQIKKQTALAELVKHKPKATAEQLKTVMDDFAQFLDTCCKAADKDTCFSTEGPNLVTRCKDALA

[5] = biological target: T1, human serum albumin (HSA); assay: fluorescence polarization
mouse KLK5 (mKLK5) = mouse KLK5 (mKLK5) (mouse); assay: substrate-based activity assay, same conditions as for hKLK
[6] = biological target: T4, human Kallikrein-related peptidase 5 (hKLK5) (human, UniProt Q9Y337 67-293, limits assumed); assay: activity assay in the presence of 25 µM HSA
T4 construct: Active protease in substrate-based activity assays; also called stratum corneum tryptic enzyme (SCTE)
T4 sequence (Q9Y337 67-293 limits assumed): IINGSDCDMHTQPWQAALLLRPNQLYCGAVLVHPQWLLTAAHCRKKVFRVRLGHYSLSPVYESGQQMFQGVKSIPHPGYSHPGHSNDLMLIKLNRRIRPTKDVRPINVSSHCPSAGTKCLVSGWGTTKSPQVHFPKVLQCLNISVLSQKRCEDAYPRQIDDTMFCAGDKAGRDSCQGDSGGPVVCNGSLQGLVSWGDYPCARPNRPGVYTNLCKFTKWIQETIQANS

FXIIa (Factor XIIa) = biological target: T5, FXIIa (Factor XIIa) (human, UniProt P00748 373-615, limits assumed); assay: substrate-based activity assay
T5 sequence (looked up): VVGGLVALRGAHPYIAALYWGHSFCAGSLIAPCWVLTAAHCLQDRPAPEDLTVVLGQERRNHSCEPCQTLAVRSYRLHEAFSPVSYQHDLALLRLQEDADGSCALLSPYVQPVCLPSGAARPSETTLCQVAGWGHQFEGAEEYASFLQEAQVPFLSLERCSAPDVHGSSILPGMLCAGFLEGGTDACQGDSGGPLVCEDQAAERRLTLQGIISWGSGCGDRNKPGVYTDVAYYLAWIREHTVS

[7] = biological target: T4, human Kallikrein-related peptidase 5 …; assay: substrate-based activity assay

B1: KLK7 inhibitor 096-tag (C-terminal albumin tag conjugate of 096) (peptide)
peptide 1: PCLYLARCSGKG
peptide 2: EYEK(Palmitoyl)EYE
modifications: bridge I:2-I:8; not fully specified (N-terminus, bridges); also: N-terminal fluorescein via PEG2, chain not given here, chain 2 tag joined via PEG2 to Lys11 side chain of chain 1
IC50 (mouse KLK7 (mKLK7)): 20 nM
Kd [1]: 164 nM
Ki [2]: 32 nM

Binder: {fluorescein-PEG2″}-EYEK(Palmitoyl)EYE (also called fluorescein-tag) [albumin tag (F-tag)]
Kd [4]: 4200 nM

B5: KLK5 inhibitor 035-tag (C-terminal albumin tag conjugate of 035) (peptide)
peptide 1: GCTRQYPCGKG
peptide 2: EYEK(Palmitoyl)EYE
modifications: bridge I:2-I:8; not fully specified (N-terminus, bridges); also: N-terminal fluorescein via PEG2, chain not given here, chain 2 tag joined via PEG2 to Lys10 side chain of chain 1
IC50 (mouse KLK5 (mKLK5)): 2 nM
Kd [1]: 119 nM
Ki [6]: 1.2 nM

B6: N-terminal albumin tag conjugate of KLK5 inhibitor 035 (peptide)
peptide 1: GCTRQYPC
peptide 2: {5(6)‑carboxyfluorescein}-EYEK(Palmitoyl)EYE
modifications: bridge I:2-I:8; not fully specified (C-terminus, bridges); also: chain 2 C-terminus joined via PEG2 to chain 1 N-terminus, linker to a chain's N/C-terminus via PEG2
binding result [1]: binds
Ki [6]: 23 nM
fold loss in activity against the cyclic peptide alone [6]: 10 fold

Other lines, results leading:

Ki [3]: 16 nM
Binder: PCLYLARCS (bridge 2-8; not fully specified (bridges)) [peptide 096 (lead KLK7 inhibitor)]

Ki [3]: 7 nM
B2: peptide 114 with norleucine in position five (peptide)
peptide: PCLY[Nle]ARC
modifications: linker 2-8 via 1,3‑dibromoacetone
notes: No peptide number is printed for the untagged norleucine derivative

Kd [5]: 147 nM
B3: peptide 284 (albumin tag variant, 2-naphthalenecarboxylic acid) (peptide)
peptide: EYEKEYEK
modifications: not fully specified; N-terminal cap based on peptide 266 with 2-naphthalenecarboxylic acid; Lys 4 side chain acylated with palmitic acid; 5(6)-FAM on the side chain of the additional C-terminal Lys

Kd [5]: 132 nM
B4: peptide 282 (albumin tag variant, biphenyl-3-carboxylic acid) (peptide)
peptide: EYEKEYEK
modifications: not fully specified; N-terminal cap based on peptide 266 with biphenyl-3-carboxylic acid; Lys 4 side chain acylated with palmitic acid; 5(6)-FAM on the side chain of the additional C-terminal Lys

Ki (FXIIa (Factor XIIa)): 40000 nM
Ki [7]: 2.2 nM
Binder: GCTRQYPC (linker 2-8 via 1,3‑dibromoacetone) [peptide 035 (lead KLK5 inhibitor)]

Reference: EP3766894A1 (Ecole Polytechnique Federale De Lausanne (EPFL) EPFL-TTO, dated 2021)
